From the supplement of paper PMC9732359
± gives the uncertainty stated by the source.

Assay: protein stability index of a GFP-peptide fusion (yeast GPS) (PSI 1-4); higher = more stable; sorted into four equal gates, so the index is relative within each strain
How it was run: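 Sequencing reads from sorted gates were used to score each peptide. The library consisted of tiled 17-residue yeast protein peptides fused downstream of GFP on a Cherry-expressing plasmid, pooled and carried in yeast. Mid-log cultures in leucine-free medium were split into four equal gates by GFP/Cherry ratio, and each gate's plasmids were PCR-amplified and Illumina-sequenced. The protein stability index adds up, over all gates, the read frequency multiplied by the gate number.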

## DRMDVDEDESQNIAQSS [HRT1]
doa10∆
  protein stability index: 2.37 ± 0.072
pdr5∆
  protein stability index: 2.66 ± 0.062
san1∆
  protein stability index: 2.21 ± 0.051
ubr1∆
  protein stability index: 2.43 ± 0.05

## MGQIATFIYFAYFLIIV [COB]
doa10∆
  protein stability index: 1.63 ± 0.053
pdr5∆
  protein stability index: 1.29 ± 0.046
san1∆
  protein stability index: 1.16 ± 0.098
ubr1∆
  protein stability index: 1.11 ± 0.026

## LETDGVNLSEVMTVPGI [RPO21]
doa10∆
  protein stability index: 2.75 ± 0.19
pdr5∆
  protein stability index: 3.36 ± 0.21
san1∆
  protein stability index: 3.03 ± 0.13
ubr1∆
  protein stability index: 3.34 ± 0.14

## RQKARTDAHTPLARNYI [RPR2]
doa10∆
  protein stability index: 2.63 ± 0.054
pdr5∆
  protein stability index: 2.52 ± 0.058
san1∆
  protein stability index: 2.78 ± 0.049
ubr1∆
  protein stability index: 2.86 ± 0.042

## IEKCLKASELKLALGIA [RPN2]
doa10∆
  protein stability index: 2.75 ± 0.1
pdr5∆
  protein stability index: 3.1 ± 0.13
san1∆
  protein stability index: 3 ± 0.098
ubr1∆
  protein stability index: 2.69 ± 0.24

## SLLGGFDENIARDIISH [PCI8]
doa10∆
  protein stability index: 2.83 ± 0.058
pdr5∆
  protein stability index: 2.83 ± 0.048
san1∆
  protein stability index: 2.71 ± 0.044
ubr1∆
  protein stability index: 2.82 ± 0.046

## PPPYVKFFTQSNLEKLP [MED7]
doa10∆
  protein stability index: 2.25 ± 0.036
pdr5∆
  protein stability index: 2.29 ± 0.04
san1∆
  protein stability index: 2.41 ± 0.049
ubr1∆
  protein stability index: 2.49 ± 0.027

## LAKKWFLQHPDEEYPVK [PRP8]
doa10∆
  protein stability index: 3.23 ± 0.14
pdr5∆
  protein stability index: 3.15 ± 0.15
san1∆
  protein stability index: 3.26 ± 0.094
ubr1∆
  protein stability index: 2.89 ± 0.16

## GWKPYYKLFIWLVVPTI [YML031W/NDC1]
doa10∆
  protein stability index: 1.28 ± 0.049
pdr5∆
  protein stability index: 1.2 ± 0.044
san1∆
  protein stability index: 1.19 ± 0.09
ubr1∆
  protein stability index: 1.16 ± 0.044

## ALYPQEARLRNLTYSSG [RPB2]
doa10∆
  protein stability index: 2.39 ± 0.093
pdr5∆
  protein stability index: 2.73 ± 0.1
san1∆
  protein stability index: 2.75 ± 0.085
ubr1∆
  protein stability index: 2.49 ± 0.089

## RLRTLCRDSDDHKRFIV [DIS3]
doa10∆
  protein stability index: 2.68 ± 0.2
pdr5∆
  protein stability index: 2.75 ± 0.13
san1∆
  protein stability index: 2.2 ± 0.27
ubr1∆
  protein stability index: 2.95 ± 0.048

## NENEDEDEGTLNVAEII [ARP9]
doa10∆
  protein stability index: 3.37 ± 0.13
pdr5∆
  protein stability index: 2.91 ± 0.14
san1∆
  protein stability index: 3.34 ± 0.072
ubr1∆
  protein stability index: 2.13 ± 0.12

## VLSDDAKKLSSFDFGNE [ARP9]
doa10∆
  protein stability index: 2.93 ± 0.055
pdr5∆
  protein stability index: 3.06 ± 0.09
san1∆
  protein stability index: 2.86 ± 0.062
ubr1∆
  protein stability index: 3.06 ± 0.056

## SKPVLIVGQKNLNRAFN [DIS3]
doa10∆
  protein stability index: 3.08 ± 0.11
pdr5∆
  protein stability index: 2.8 ± 0.1
san1∆
  protein stability index: 2.77 ± 0.055
ubr1∆
  protein stability index: 2.8 ± 0.088

## GPSIYKTDPAGYYVGYK [SCL1]
doa10∆
  protein stability index: 3.17 ± 0.092
pdr5∆
  protein stability index: 3.4 ± 0.08
san1∆
  protein stability index: 3.33 ± 0.059
ubr1∆
  protein stability index: 3.38 ± 0.091

## EIDDTEAEVTAEVNGGD [BRR2]
doa10∆
  protein stability index: 3.13 ± 0.088
pdr5∆
  protein stability index: 2.79 ± 0.12
san1∆
  protein stability index: 3.01 ± 0.13
ubr1∆
  protein stability index: 3.16 ± 0.065

## DEEETAEGQTNSISDFL [RPN1]
doa10∆
  protein stability index: 2.84 ± 0.14
pdr5∆
  protein stability index: 3.13 ± 0.094
san1∆
  protein stability index: 2.94 ± 0.078
ubr1∆
  protein stability index: 3.04 ± 0.069

## LDKDRKALIQRKGGKLE [RPL26A]
doa10∆
  protein stability index: 2.48 ± 0.18
pdr5∆
  protein stability index: 3.5 ± 0.21
san1∆
  protein stability index: 3.12 ± 0.09
ubr1∆
  protein stability index: 2.97 ± 0.14

## KSLEDLSCQYDNTVRTS [RPO31]
doa10∆
  protein stability index: 1.3 ± 0.19
pdr5∆
  protein stability index: 1.31 ± 0.14

## KVDIFEIPETGEYSVKL [FAS2]
doa10∆
  protein stability index: 3.17 ± 0.093
pdr5∆
  protein stability index: 3.37 ± 0.08
san1∆
  protein stability index: 3.27 ± 0.046
ubr1∆
  protein stability index: 2.99 ± 0.049

## DLSLIVKARHGGCDYIF [CYT1]
doa10∆
  protein stability index: 2.74 ± 0.097
pdr5∆
  protein stability index: 2.94 ± 0.1
san1∆
  protein stability index: 2.72 ± 0.1
ubr1∆
  protein stability index: 2.46 ± 0.061

## NNVVINFKDMSHVNKYG [PRP8]
doa10∆
  protein stability index: 2.64 ± 0.1
pdr5∆
  protein stability index: 2.6 ± 0.079
san1∆
  protein stability index: 2.75 ± 0.059
ubr1∆
  protein stability index: 2.57 ± 0.075

## YESRNVAKRRFEYSKYR [RRP6]
doa10∆
  protein stability index: 3.16 ± 0.072
pdr5∆
  protein stability index: 3.4 ± 0.087
san1∆
  protein stability index: 3.29 ± 0.041
ubr1∆
  protein stability index: 3.3 ± 0.079

## EVYNVIASDGSYVNYRH [RPO21]
doa10∆
  protein stability index: 3.41 ± 0.11
pdr5∆
  protein stability index: 3.58 ± 0.085
san1∆
  protein stability index: 2.88 ± 0.12
ubr1∆
  protein stability index: 3.08 ± 0.091

## EKSLLPKIETNVYVGMT [ISW2]
doa10∆
  protein stability index: 2.92 ± 0.13
pdr5∆
  protein stability index: 2.97 ± 0.11
san1∆
  protein stability index: 3.07 ± 0.098
ubr1∆
  protein stability index: 3.2 ± 0.1

## YSLHQIRKDPNNLSNQL [CSE2]
doa10∆
  protein stability index: 2.54 ± 0.076
pdr5∆
  protein stability index: 2.66 ± 0.071
san1∆
  protein stability index: 2.65 ± 0.054
ubr1∆
  protein stability index: 2.77 ± 0.04

## LVREIAQDFKTDLRFQS [HHT1]
doa10∆
  protein stability index: 2.55 ± 0.097
pdr5∆
  protein stability index: 3 ± 0.078
san1∆
  protein stability index: 2.65 ± 0.076
ubr1∆
  protein stability index: 2.88 ± 0.099

## IRGSDQAIPKFQMNCYA [RPN2]
doa10∆
  protein stability index: 1.27 ± 0.085
pdr5∆
  protein stability index: 1.62 ± 0.066
san1∆
  protein stability index: 1.55 ± 0.13
ubr1∆
  protein stability index: 1.47 ± 0.11

## NIYNFSPSERIEPLEIN [BRR2]
doa10∆
  protein stability index: 2.39 ± 0.064
pdr5∆
  protein stability index: 2.78 ± 0.051
san1∆
  protein stability index: 1.93 ± 0.056
ubr1∆
  protein stability index: 2.2 ± 0.05

## KALILAPTRELVQQIQK [PRP28]
doa10∆
  protein stability index: 2.67 ± 0.087
pdr5∆
  protein stability index: 2.82 ± 0.055
san1∆
  protein stability index: 2.75 ± 0.073
ubr1∆
  protein stability index: 3 ± 0.069

## TIKISTNDDSIKNLTVQ [RGR1]
doa10∆
  protein stability index: 2.88 ± 0.13
pdr5∆
  protein stability index: 3.05 ± 0.1
san1∆
  protein stability index: 2.9 ± 0.074
ubr1∆
  protein stability index: 2.96 ± 0.14

## KEEFRLMISPKDEETTE [RRI2]
doa10∆
  protein stability index: 1.75 ± 0.069
pdr5∆
  protein stability index: 1.68 ± 0.055
san1∆
  protein stability index: 1.14 ± 0.14
ubr1∆
  protein stability index: 1.5 ± 0.039

## QDDDDYVDTATAKRKSR [IRR1]
doa10∆
  protein stability index: 2.83 ± 0.061
pdr5∆
  protein stability index: 2.94 ± 0.054
san1∆
  protein stability index: 2.15 ± 0.083
ubr1∆
  protein stability index: 2.93 ± 0.039

## EEQDVDMTGDEEQEEEP [RPC19]
ubr1∆
  protein stability index: 2.76 ± 0.28

## PDDMVEINSVGNPGLPQ [ITC1]
doa10∆
  protein stability index: 2.85 ± 0.086
pdr5∆
  protein stability index: 3.26 ± 0.04
san1∆
  protein stability index: 3.05 ± 0.072
ubr1∆
  protein stability index: 3.09 ± 0.06

## FKLPKKFPPPTPLLENI [BRR2]
doa10∆
  protein stability index: 2.44 ± 0.062
pdr5∆
  protein stability index: 2.72 ± 0.067
san1∆
  protein stability index: 2.31 ± 0.061
ubr1∆
  protein stability index: 2.71 ± 0.048

## QVRNQVFMLDTKRLGTP [RGR1]
doa10∆
  protein stability index: 2.77 ± 0.099
pdr5∆
  protein stability index: 2.46 ± 0.11
san1∆
  protein stability index: 2.75 ± 0.084
ubr1∆
  protein stability index: 2.89 ± 0.17

## RVVYLKHLEDNTLLVTG [RPL6B]
doa10∆
  protein stability index: 1.89 ± 0.29
pdr5∆
  protein stability index: 1.12 ± 0.095
san1∆
  protein stability index: 1.15 ± 0.2
ubr1∆
  protein stability index: 1.16 ± 0.2

## MYTLSAQDEVFSLAFSP [ASC1]
doa10∆
  protein stability index: 2.24 ± 0.062
pdr5∆
  protein stability index: 2.82 ± 0.085
san1∆
  protein stability index: 2.78 ± 0.059
ubr1∆
  protein stability index: 2.75 ± 0.066

## MENDKGQLVELYVPRKC [RPS21A]
doa10∆
  protein stability index: 3.17 ± 0.14
san1∆
  protein stability index: 3.23 ± 0.12
ubr1∆
  protein stability index: 3.25 ± 0.091

## AALIASKVYYNLGEYES [RPN2]
doa10∆
  protein stability index: 1.88 ± 0.077
pdr5∆
  protein stability index: 1.6 ± 0.066
san1∆
  protein stability index: 1.33 ± 0.067
ubr1∆
  protein stability index: 1.69 ± 0.051

## KSRMINFLDAPGHVNFM [SNU114]
pdr5∆
  protein stability index: 2.65 ± 0.17
san1∆
  protein stability index: 3.06 ± 0.12
ubr1∆
  protein stability index: 3.57 ± 0.28

## SSDGQLKKFRESLVHSA [BRR2]
doa10∆
  protein stability index: 3.41 ± 0.15
pdr5∆
  protein stability index: 3.25 ± 0.23
san1∆
  protein stability index: 3.22 ± 0.16
ubr1∆
  protein stability index: 3.33 ± 0.13

## DNVSSQQMHEVRKELRG [RPP0]
doa10∆
  protein stability index: 2.4 ± 0.14
pdr5∆
  protein stability index: 2.45 ± 0.18
ubr1∆
  protein stability index: 2.82 ± 0.13

## EQSVKTQNSRHYMVHEA [LIN1]
doa10∆
  protein stability index: 2.62 ± 0.25
pdr5∆
  protein stability index: 2.82 ± 0.11
san1∆
  protein stability index: 2.49 ± 0.089

## VKWYHFDHNDKKLSINS [PRE7]
doa10∆
  protein stability index: 2.51 ± 0.086
pdr5∆
  protein stability index: 2.38 ± 0.063
san1∆
  protein stability index: 2.15 ± 0.082
ubr1∆
  protein stability index: 2.48 ± 0.1

## EGGKNQAELLQLAVKII [YJL039C/NUP192]
doa10∆
  protein stability index: 2.87 ± 0.12
pdr5∆
  protein stability index: 3.28 ± 0.081
san1∆
  protein stability index: 3.3 ± 0.2
ubr1∆
  protein stability index: 2.72 ± 0.11

## KFLNFRPPNGIKNFKSL [SSN2]
doa10∆
  protein stability index: 1.87 ± 0.04
pdr5∆
  protein stability index: 1.83 ± 0.04
san1∆
  protein stability index: 2.16 ± 0.061
ubr1∆
  protein stability index: 1.79 ± 0.031

## DVAFADGGKTLRACAAN [YMR129W/POM152]
doa10∆
  protein stability index: 1.54 ± 0.18
pdr5∆
  protein stability index: 2.6 ± 0.19
ubr1∆
  protein stability index: 2.36 ± 0.1

## NPLIELTPIQKKIMDET [ITC1]
doa10∆
  protein stability index: 2.67 ± 0.087
pdr5∆
  protein stability index: 3.08 ± 0.08
san1∆
  protein stability index: 3.24 ± 0.057
ubr1∆
  protein stability index: 3.07 ± 0.076

## RVHRLLRRGNYAQRIGS [HTA1]
doa10∆
  protein stability index: 2.65 ± 0.23
pdr5∆
  protein stability index: 2.77 ± 0.19
san1∆
  protein stability index: 2.64 ± 0.094
ubr1∆
  protein stability index: 2.74 ± 0.24

## IIDAKTRNEQTTIQTEK [MCD1]
doa10∆
  protein stability index: 3.19 ± 0.093
pdr5∆
  protein stability index: 3.23 ± 0.082
san1∆
  protein stability index: 2.91 ± 0.17
ubr1∆
  protein stability index: 3.01 ± 0.06
